Data taken from PMC4821239, “Molecular architecture of the Dam1 complex–microtubule interaction” (Open Biology, 2016).

T1: Dam1 (budding yeast, UniProt P53267 1-343)
T1 construct: Dam1, subunit of the budding yeast Dam1 complex; Subunit inside the recombinant 10-subunit complex; also called Dam1 subunit; source: expressed and purified as part of the Dam1 complex as described [3]
T1 sequence (looked up): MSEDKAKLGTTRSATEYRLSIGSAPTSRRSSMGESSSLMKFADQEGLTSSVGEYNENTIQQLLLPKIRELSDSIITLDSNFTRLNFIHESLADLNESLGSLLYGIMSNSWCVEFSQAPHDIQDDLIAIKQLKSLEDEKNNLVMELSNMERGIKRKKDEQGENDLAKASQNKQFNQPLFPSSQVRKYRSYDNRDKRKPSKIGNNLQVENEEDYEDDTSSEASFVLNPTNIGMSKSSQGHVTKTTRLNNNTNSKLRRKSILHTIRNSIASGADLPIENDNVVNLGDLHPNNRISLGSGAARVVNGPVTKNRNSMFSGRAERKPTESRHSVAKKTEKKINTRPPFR

T2: Dad2 (budding yeast, UniProt P36162 1-133)
T2 construct: Dad2, subunit of the budding yeast Dam1 complex; Subunit inside the recombinant 10-subunit complex; source: expressed and purified as part of the Dam1 complex as described [3]
T2 sequence (looked up): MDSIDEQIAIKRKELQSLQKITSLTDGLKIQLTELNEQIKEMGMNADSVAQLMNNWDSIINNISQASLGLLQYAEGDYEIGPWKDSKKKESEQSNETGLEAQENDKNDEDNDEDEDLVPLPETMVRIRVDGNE

T3: Spc34 (budding yeast, UniProt P36131 1-295)
T3 construct: Spc34, subunit of the budding yeast Dam1 complex; Subunit inside the recombinant 10-subunit complex; source: expressed and purified as part of the Dam1 complex as described [3]
T3 sequence (looked up): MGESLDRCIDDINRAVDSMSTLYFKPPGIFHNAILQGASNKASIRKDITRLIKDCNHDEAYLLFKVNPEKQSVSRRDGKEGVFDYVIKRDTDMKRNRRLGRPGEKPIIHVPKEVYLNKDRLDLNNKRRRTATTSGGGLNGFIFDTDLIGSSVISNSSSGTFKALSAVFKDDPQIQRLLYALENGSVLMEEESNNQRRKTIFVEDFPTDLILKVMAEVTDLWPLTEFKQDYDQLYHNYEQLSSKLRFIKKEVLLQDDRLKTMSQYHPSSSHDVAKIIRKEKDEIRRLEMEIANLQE

T4: Spc19 (budding yeast, UniProt Q03954 1-165)
T4 construct: Spc19, subunit of the budding yeast Dam1 complex; Subunit inside the recombinant 10-subunit complex; also called Sp19; source: expressed and purified as part of the Dam1 complex as described [3]
T4 sequence (looked up): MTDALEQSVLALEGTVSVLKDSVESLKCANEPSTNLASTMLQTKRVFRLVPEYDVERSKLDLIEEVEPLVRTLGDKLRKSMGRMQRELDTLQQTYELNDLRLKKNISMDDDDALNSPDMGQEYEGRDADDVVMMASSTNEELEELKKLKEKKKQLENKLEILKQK

T5: Ask1 (budding yeast, UniProt P35734 1-292)
T5 construct: Ask1, subunit of the budding yeast Dam1 complex; Subunit inside the recombinant 10-subunit complex; source: expressed and purified as part of the Dam1 complex as described [3]
T5 sequence (looked up): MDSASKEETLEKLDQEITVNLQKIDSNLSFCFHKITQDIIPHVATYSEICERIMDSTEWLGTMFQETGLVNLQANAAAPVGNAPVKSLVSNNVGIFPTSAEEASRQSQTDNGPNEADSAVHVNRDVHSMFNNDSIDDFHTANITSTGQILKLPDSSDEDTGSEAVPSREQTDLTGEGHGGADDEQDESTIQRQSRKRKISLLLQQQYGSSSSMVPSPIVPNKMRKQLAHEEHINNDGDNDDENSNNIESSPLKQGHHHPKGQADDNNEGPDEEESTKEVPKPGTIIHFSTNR

B1: Hsk3 (natural protein, budding yeast, UniProt P69852 1-69, looked up)
chain: MNANKQRQYNQLAHELRELQTNLQETTKQLDIMSKQCNENLVGQLGKVHGSWLIGSYIYYMEQMLGKTQ
notes: Hsk3, subunit of the budding yeast Dam1 complex; Subunit inside the recombinant 10-subunit complex; also called his-tagged Hsk3; source: expressed and purified as part of the Dam1 complex as described [3]; mutant complexes by Ni-NTA and Superose 6
B2: Dad4 (natural protein, budding yeast, UniProt P69851 1-72, looked up)
chain: MENPHEQVQANILSRIIGNVKRLNESVAILNQELVTINNRNKNLEIMGAICDNYHSSVQFNLEATNNKKPPL
notes: Dad4, subunit of the budding yeast Dam1 complex; Subunit inside the recombinant 10-subunit complex; source: expressed and purified as part of the Dam1 complex as described [3]

What was measured:
Dam1 = molecular target: T1, Dam1; experiment: cross-linking; BS3, Dam1 complex at 0.3 mg/ml in BRB80, room temperature 40-60 min, digested in solution, mass spectrometry; some links may be between oligomerizing complexes; conditions: both partners purified
Dad2 [1] = molecular target: T2, Dad2; experiment: affinity purification with mass spectrometry; mutant Dam1 complexes purified by the His tag on Hsk3 (Ni-NTA), then Superose 6 size-exclusion chromatography; proteins identified by mass spectrometry; conditions: partners not purified
Dad4 = molecular target: B2; experiment: as above; conditions: partners not purified
Spc34 = molecular target: T3, Spc34; experiment: cross-linking; BS3, Dam1 complex at 0.3 mg/ml in BRB80, room temperature 40-60 min, digested in solution, mass spectrometry; some links may be between oligomerizing complexes; conditions: both partners purified
Spc19 = molecular target: T4, Spc19; experiment: as above; conditions: both partners purified
Ask1 = molecular target: T5, Ask1; experiment: cross-linking; EDC with Sulfo-NHS, Dam1 complex assembled on taxol-stabilized microtubules in BRB80, pellet washed, room temperature 1 h, digested in solution, mass spectrometry; conditions: both partners purified
Dad2 [2] = molecular target: T2, Dad2; experiment: cross-linking; BS3, Dam1 complex at 0.05 mg/ml in solution; cross-linked species (approx. 110, 220 and 440 kDa) separated by SDS-PAGE, bands cut out, in-gel trypsin digestion, mass spectrometry; conditions: both partners purified

Measured: binding result

B1
binds: Dam1 | Dad2 [1] | Dad4

B2
binds: Dam1 | Spc34 | Spc19 | Ask1 | Dad2 [2]
